System: K4 kissing-loop RNA reporter
Test: apparent KD of K4 kissing-loop reporter; higher = weaker reporter binding
Conditions: Eterna round: R107
Experimental: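 RNA-MaP round R107: designed RNA switches with theophylline, tryptophan, arginine or FMN aptamers are transcribed on-chip within common flanks. They are titrated with a labelled K4 kissing-loop RNA reporter in RNA-MaP buffer (100 mM Tris pH 7.5, 80 mM KCl, 4 mM MgCl2), without ligand or with the indicated ligand. Median apparent KD per design.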

[1] = input ligand: theophylline 20 uM
[2] = input ligand: tryptophan 2.4 mM
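Further: bound reporter read as fluorescence of individual clusters on recovered sequencing chips by microscopy, with normalized cluster intensities fitted with a binding model.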

AAAAUAAACCAGUGAUGUUGGUAUCCAGAUACCAGCGACGAAAGUCGCCCUUGGCAGCUGUGGACGUACAAAAUAAGUACGUCCU
apparent KD of K4 kissing-loop reporter (input ligand: FMN 200 uM): 930 nM
apparent KD of K4 kissing-loop reporter (input ligand: arginine 13.2 mM): 619 nM
apparent KD of K4 kissing-loop reporter (input ligand: none): 894 nM
apparent KD of K4 kissing-loop reporter [1]: 746 nM
apparent KD of K4 kissing-loop reporter [2]: 714 nM

AAAAUAAAGGAGUGAUGUUCCAUAACGGAUACCAGCCACGAAAGUGGCCCUUGGCAGCUGUGCCAGUGGACGAAUAACGUCCACA [#OpenEnded 6 #StaticStem #K4Early]
apparent KD of K4 kissing-loop reporter (input ligand: FMN 200 uM): 164 nM
apparent KD of K4 kissing-loop reporter (input ligand: arginine 13.2 mM): 287 nM
apparent KD of K4 kissing-loop reporter (input ligand: none): 237 nM
apparent KD of K4 kissing-loop reporter [1]: 280 nM
apparent KD of K4 kissing-loop reporter [2]: 164 nM

AAAAUAAAUAGCAGUCAUGGAGUGAUGUUCCGAGGACCGGUACGGCCGCCACUCGACCAUCAUAAGAUGGAUGGCGAAGACUGCA [#SwitchBubble 24 #K4Early]
apparent KD of K4 kissing-loop reporter (input ligand: FMN 200 uM): 515 nM
apparent KD of K4 kissing-loop reporter (input ligand: arginine 13.2 mM): 544 nM
apparent KD of K4 kissing-loop reporter (input ligand: none): 483 nM
apparent KD of K4 kissing-loop reporter [1]: 445 nM
apparent KD of K4 kissing-loop reporter [2]: 864 nM

AAAAUAACCCAGUGAUGUUGGUAUACAGAUACCAGCGACGAAAGUCGCCCUUGGCAGCUGUGGACGUACAAAAUAAGUACGUCCU
apparent KD of K4 kissing-loop reporter (input ligand: FMN 200 uM): 986 nM
apparent KD of K4 kissing-loop reporter (input ligand: arginine 13.2 mM): 705 nM
apparent KD of K4 kissing-loop reporter (input ligand: none): 1120 nM
apparent KD of K4 kissing-loop reporter [1]: 902 nM
apparent KD of K4 kissing-loop reporter [2]: 1010 nM

AAAAUAAGCCAGUGAUGUUGGUAUGCAGAUACCAGCGACGAAAGUCGCCCUUGGCAGCUGUGGACGUACAAAAUAAGUACGUCCU
apparent KD of K4 kissing-loop reporter (input ligand: FMN 200 uM): 253 nM
apparent KD of K4 kissing-loop reporter (input ligand: arginine 13.2 mM): 109 nM
apparent KD of K4 kissing-loop reporter (input ligand: none): 329 nM
apparent KD of K4 kissing-loop reporter [1]: 331 nM
apparent KD of K4 kissing-loop reporter [2]: 179 nM

AAACAUCACUGGGAGUGAUGUUCUCAGUGACGAGGACCGGUACGGCCGCCACUCGCGAGAGAUUUAGUCUAGUCUUGACUGCAUU [Excl Tryptophan A V12]
apparent KD of K4 kissing-loop reporter (input ligand: FMN 200 uM): 299 nM
apparent KD of K4 kissing-loop reporter (input ligand: arginine 13.2 mM): 303 nM
apparent KD of K4 kissing-loop reporter (input ligand: none): 264 nM
apparent KD of K4 kissing-loop reporter [1]: 372 nM
apparent KD of K4 kissing-loop reporter [2]: 331 nM

AAACAUUGGUGCGAUACCAGCUGAUCGGAAACGAUCAUGCUGGAGUGAUGUUCCAGGAAAAGCCCUUGGCAGCGCACCGAUGAAA [MAT - Same State Theophlline B - Mod of Eli - D29]
apparent KD of K4 kissing-loop reporter (input ligand: FMN 200 uM): 128 nM
apparent KD of K4 kissing-loop reporter (input ligand: arginine 13.2 mM): 79.8 nM
apparent KD of K4 kissing-loop reporter (input ligand: none): 78.5 nM
apparent KD of K4 kissing-loop reporter [1]: 275 nM
apparent KD of K4 kissing-loop reporter [2]: 95.9 nM

AAACGUUGGUCGGAUACCAGCUUGAUCGGAAACGAUCUGCUGGAGUGAUGUUCCAAGUAAAGCCCUUGGCAGCCGACCGACGAAA [MAT - Same State Theophlline B - Mod of Eli - D18]
apparent KD of K4 kissing-loop reporter (input ligand: FMN 200 uM): 148 nM
apparent KD of K4 kissing-loop reporter (input ligand: arginine 13.2 mM): 65.1 nM
apparent KD of K4 kissing-loop reporter (input ligand: none): 99.4 nM
apparent KD of K4 kissing-loop reporter [1]: 95.4 nM
apparent KD of K4 kissing-loop reporter [2]: 71.6 nM

AAACGUUGGUGCGAUACCAGCUGGUCGGAAACGACCUUGCUGGAGUGAUGUUCCAAGUAAAGCCCUUGGCAGCGCACCGACGAAA [MAT - Same State Theophlline B - Mod of Eli - D23]
apparent KD of K4 kissing-loop reporter (input ligand: FMN 200 uM): 122 nM
apparent KD of K4 kissing-loop reporter (input ligand: arginine 13.2 mM): 53.6 nM
apparent KD of K4 kissing-loop reporter (input ligand: none): 43.2 nM
apparent KD of K4 kissing-loop reporter [1]: 135 nM
apparent KD of K4 kissing-loop reporter [2]: 93.9 nM

AAAGUUGAAAGUGAUACCAGACGAGUGAAGGGAAGUAAUUAAUUUGGAGUGAUGUUCCGCGUCCCUUGGCAGCAUUUUGUAAUUU [Exclusion Theophylline B GF 24]
apparent KD of K4 kissing-loop reporter (input ligand: FMN 200 uM): 166 nM
apparent KD of K4 kissing-loop reporter (input ligand: arginine 13.2 mM): 195 nM
apparent KD of K4 kissing-loop reporter (input ligand: none): 189 nM
apparent KD of K4 kissing-loop reporter [1]: 186 nM
apparent KD of K4 kissing-loop reporter [2]: 153 nM

AAAUAAAGCAGUCACCCAGUGAUGUUGGAAGGAGCGUGCGAAAGCACAGGUAGGUCGCCGAUAAGGACAAAGUCCAGUGGCUGCA [#SwitchBubble 28 #K4Early]
apparent KD of K4 kissing-loop reporter (input ligand: FMN 200 uM): 458 nM
apparent KD of K4 kissing-loop reporter (input ligand: arginine 13.2 mM): 344 nM
apparent KD of K4 kissing-loop reporter (input ligand: none): 595 nM
apparent KD of K4 kissing-loop reporter [1]: 590 nM
apparent KD of K4 kissing-loop reporter [2]: 283 nM

AAAUAGAUCAGUCACCCAGUGAUGUUGGAAGGAGCGUGCGAAAGCACAGGUAGGUCGCCAGAAUAAAAGUGGCUGAUCAAAAUAA
apparent KD of K4 kissing-loop reporter (input ligand: FMN 200 uM): 512 nM
apparent KD of K4 kissing-loop reporter (input ligand: arginine 13.2 mM): 358 nM
apparent KD of K4 kissing-loop reporter (input ligand: none): 519 nM
apparent KD of K4 kissing-loop reporter [1]: 513 nM
apparent KD of K4 kissing-loop reporter [2]: 366 nM

AAAUAGAUCAGUCACCCAGUGAUGUUGGAAGGAGCGUGCGAAAGCACAGGUAGGUCGCCAUAAUAAAAGUGGCUGAUCAAAAUAA
apparent KD of K4 kissing-loop reporter (input ligand: FMN 200 uM): 446 nM
apparent KD of K4 kissing-loop reporter (input ligand: arginine 13.2 mM): 287 nM
apparent KD of K4 kissing-loop reporter (input ligand: none): 487 nM
apparent KD of K4 kissing-loop reporter [1]: 534 nM
apparent KD of K4 kissing-loop reporter [2]: 310 nM
